Test results published in US6987008B1, “Variant nucleoside-5′-phosphate producing enzyme” (priority 1999, dated 2006).

Legend:
[1] = tested on: Nc1nc2c(ncn2[C@@H]2O[C@H](CO)[C@@H](O)[C@H]2O)c(=O)[nH]1; experiment: Km for inosine and guanosine, transphosphorylation by EA-AP mutant of pENP180 (parent); assay type: biochemical, Enterobacter aerogenes IFO12010; details: other: transphosphorylation, 100 μmol/ml sodium pyrophosphate, pH 4.0, 30° C., 10 min, cell free extract, Hanes-Woolf
Procedure: (§1) As a gene for introducing a mutation, a plasmid pENP170 that contained a mutant EA-AP gene coding for L61Q/A63Q/E64A/N67D/S69A/G72D/T133K/E134D/I151T mutant EA-AP was used. pENP170 was prepared as follows.
(§2) As described above, a mutant gene was constructed, in which the nucleotide sequence of −10 region of the deduced promoter sequence located upstream from the coding region of the deduced acid phosphatase derived from Enterobacter aerogenes IFO12010 was changed from AAAAAT to TATAAT, which was the same as lac promoter of Escherichia coli. The plasmid containing this mutant gene was designated as pENP180.
(§3) Escherichia coli JM109/pENP180, Escherichia coli JM109/pENP320, Escherichia coli JM109/pENP340, Escherichia coli JM109/pENP410, Escherichia coli JM109/pENP510 and Escherichia coli JM109/pENP520, which were introduced with a plasmid containing each mutant acid phosphatase gene, were each inoculated to 50 ml of L medium containing 100 µg/ml of ampicillin and 1 mM of IPTG, and cultured at 37° C. for 16 hours. The cells were suspended in 50 mL of 100 mM potassium phosphate buffer (pH 7.0), and disrupted by sonication at 4° C. for 20 minutes. The cells were collected from each medium by centrifugation, and washed once with physiological saline. […] Km values for inosine and guanosine in the transphosphorylation reaction were measured by using each cell free extract. […]

[2] = tested on: OC[C@H]1O[C@@H](n2cnc3c(O)ncnc32)[C@H](O)[C@@H]1O; experiment: as above; assay type: biochemical, Enterobacter aerogenes IFO12010; details: other: transphosphorylation, 100 μmol/ml sodium pyrophosphate, pH 4.0, 30° C., 10 min, cell free extract, Hanes-Woolf
Procedure: as §1, §2, §3

[3] = tested on: Nc1nc2c(ncn2[C@@H]2O[C@H](CO)[C@@H](O)[C@H]2O)c(=O)[nH]1; experiment: Km for inosine and guanosine, transphosphorylation by EA-AP mutant of pENP410; assay type: biochemical, Enterobacter aerogenes IFO12010; details: other: transphosphorylation, 100 μmol/ml sodium pyrophosphate, pH 4.0, 30° C., 10 min, cell free extract, Hanes-Woolf
From the text: (§4) The mutations were introduced into the plasmid DNA by using Quick Change site-directed mutagenesis kit produced by Stratagene. Twenty kinds of oligonucleotides (Table 12) for introduction of mutation from MUT180 (SEQ ID NO: 101) to […] (SEQ ID NO: 120) were synthesized by using a DNA synthesizer (Model 394 produced by Applied Biosystem). The mutations were introduced according to the protocol of Stratagene by using pENP170 as the first template and MUT180 and MUT181 as oligonucleotides for introduction of mutation.
(§5) By using a plasmid introduced with a mutation as a new template, the same procedure was repeated to cumulatively introduce site-specific mutations. Plasmids were prepared from the transformants by the alkali lysis method, and their nucleotide sequences were determined to confirm that the target nucleotides were replaced. […]
as §3, with “hours.” for “hours. The cells were suspended in 50 mL of 100 mM potassium phosphate buffer (pH 7.0), and disrupted by sonication at 4° C. for 20 minutes. The cells were collected from each medium by centrifugation, and washed once with physiological saline.”

[4] = tested on: OC[C@H]1O[C@@H](n2cnc3c(O)ncnc32)[C@H](O)[C@@H]1O; experiment: as above; assay type: biochemical, Enterobacter aerogenes IFO12010; details: other: transphosphorylation, 100 μmol/ml sodium pyrophosphate, pH 4.0, 30° C., 10 min, cell free extract, Hanes-Woolf
From the text: as §4, §5
as §3, with “hours.” for “hours. The cells were suspended in 50 mL of 100 mM potassium phosphate buffer (pH 7.0), and disrupted by sonication at 4° C. for 20 minutes. The cells were collected from each medium by centrifugation, and washed once with physiological saline.”

[5] = target: T1, Escherichia blattae acid phosphatase (EB-AP), wild type, SEQ ID NO: 2 / 124 (Shimwellia blattae, UniProt Q9S1A6); experiment: Km of inosine for wild-type EB-AP; assay type: biochemical
T1 sequence (Q9S1A6 21-249): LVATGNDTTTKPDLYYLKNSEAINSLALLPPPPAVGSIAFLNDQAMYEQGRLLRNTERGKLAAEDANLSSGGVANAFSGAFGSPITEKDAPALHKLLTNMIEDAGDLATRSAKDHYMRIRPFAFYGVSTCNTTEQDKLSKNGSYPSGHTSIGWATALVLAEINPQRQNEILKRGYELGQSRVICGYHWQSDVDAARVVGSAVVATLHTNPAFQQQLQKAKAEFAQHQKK

[6] = tested on: Nc1nc2c(ncn2[C@@H]2O[C@H](CO)[C@@H](O)[C@H]2O)c(=O)[nH]1; experiment: Km for inosine and guanosine, transphosphorylation by EA-AP mutant of pENP520; assay type: biochemical, Enterobacter aerogenes IFO12010; details: other: transphosphorylation, 100 μmol/ml sodium pyrophosphate, pH 4.0, 30° C., 10 min, cell free extract, Hanes-Woolf
From the text: as §4, §5
as §3, with “hours.” for “hours. The cells were suspended in 50 mL of 100 mM potassium phosphate buffer (pH 7.0), and disrupted by sonication at 4° C. for 20 minutes. The cells were collected from each medium by centrifugation, and washed once with physiological saline.”

[7] = tested on: OC[C@H]1O[C@@H](n2cnc3c(O)ncnc32)[C@H](O)[C@@H]1O; experiment: as above; assay type: biochemical, Enterobacter aerogenes IFO12010; details: other: transphosphorylation, 100 μmol/ml sodium pyrophosphate, pH 4.0, 30° C., 10 min, cell free extract, Hanes-Woolf
From the text: as §4, §5
as §3, with “hours.” for “hours. The cells were suspended in 50 mL of 100 mM potassium phosphate buffer (pH 7.0), and disrupted by sonication at 4° C. for 20 minutes. The cells were collected from each medium by centrifugation, and washed once with physiological saline.”

[8] = tested on: Nc1nc2c(ncn2[C@@H]2O[C@H](CO)[C@@H](O)[C@H]2O)c(=O)[nH]1; experiment: Km for inosine and guanosine, transphosphorylation by EA-AP mutant of pENP320; assay type: biochemical, Enterobacter aerogenes IFO12010; details: other: transphosphorylation, 100 μmol/ml sodium pyrophosphate, pH 4.0, 30° C., 10 min, cell free extract, Hanes-Woolf
From the text: as §4, §5
as §3, with “hours.” for “hours. The cells were suspended in 50 mL of 100 mM potassium phosphate buffer (pH 7.0), and disrupted by sonication at 4° C. for 20 minutes. The cells were collected from each medium by centrifugation, and washed once with physiological saline.”

[9] = tested on: OC[C@H]1O[C@@H](n2cnc3c(O)ncnc32)[C@H](O)[C@@H]1O; experiment: as above; assay type: biochemical, Enterobacter aerogenes IFO12010; details: other: transphosphorylation, 100 μmol/ml sodium pyrophosphate, pH 4.0, 30° C., 10 min, cell free extract, Hanes-Woolf
From the text: as §4, §5
as §3, with “hours.” for “hours. The cells were suspended in 50 mL of 100 mM potassium phosphate buffer (pH 7.0), and disrupted by sonication at 4° C. for 20 minutes. The cells were collected from each medium by centrifugation, and washed once with physiological saline.”

[10] = tested on: Nc1nc2c(ncn2[C@@H]2O[C@H](CO)[C@@H](O)[C@H]2O)c(=O)[nH]1; experiment: Km for inosine and guanosine, transphosphorylation by EA-AP mutant of pENP510; assay type: biochemical, Enterobacter aerogenes IFO12010; details: other: transphosphorylation, 100 μmol/ml sodium pyrophosphate, pH 4.0, 30° C., 10 min, cell free extract, Hanes-Woolf
From the text: as §4, §5
as §3, with “hours.” for “hours. The cells were suspended in 50 mL of 100 mM potassium phosphate buffer (pH 7.0), and disrupted by sonication at 4° C. for 20 minutes. The cells were collected from each medium by centrifugation, and washed once with physiological saline.”

[11] = tested on: OC[C@H]1O[C@@H](n2cnc3c(O)ncnc32)[C@H](O)[C@@H]1O; experiment: as above; assay type: biochemical, Enterobacter aerogenes IFO12010; details: other: transphosphorylation, 100 μmol/ml sodium pyrophosphate, pH 4.0, 30° C., 10 min, cell free extract, Hanes-Woolf
From the text: as §4, §5
as §3, with “hours.” for “hours. The cells were suspended in 50 mL of 100 mM potassium phosphate buffer (pH 7.0), and disrupted by sonication at 4° C. for 20 minutes. The cells were collected from each medium by centrifugation, and washed once with physiological saline.”

[12] = tested on: Nc1nc2c(ncn2[C@@H]2O[C@H](CO)[C@@H](O)[C@H]2O)c(=O)[nH]1; experiment: Km for inosine and guanosine, transphosphorylation by EA-AP mutant of pENP340; assay type: biochemical, Enterobacter aerogenes IFO12010; details: other: transphosphorylation, 100 μmol/ml sodium pyrophosphate, pH 4.0, 30° C., 10 min, cell free extract, Hanes-Woolf
From the text: as §4, §5
as §3, with “hours.” for “hours. The cells were suspended in 50 mL of 100 mM potassium phosphate buffer (pH 7.0), and disrupted by sonication at 4° C. for 20 minutes. The cells were collected from each medium by centrifugation, and washed once with physiological saline.”

[13] = tested on: OC[C@H]1O[C@@H](n2cnc3c(O)ncnc32)[C@H](O)[C@@H]1O; experiment: as above; assay type: biochemical, Enterobacter aerogenes IFO12010; details: other: transphosphorylation, 100 μmol/ml sodium pyrophosphate, pH 4.0, 30° C., 10 min, cell free extract, Hanes-Woolf
From the text: as §4, §5
as §3, with “hours.” for “hours. The cells were suspended in 50 mL of 100 mM potassium phosphate buffer (pH 7.0), and disrupted by sonication at 4° C. for 20 minutes. The cells were collected from each medium by centrifugation, and washed once with physiological saline.”

“Enterobacter aerogenes IFO12010 acid phosphatase (EA-AP) mutant encoded by pENP180, L61Q/A63Q/E64A/N67D/S69A/G72D/T133K/E134D/I151T, SEQ ID NO: 10 (Klebsiella aerogenes KCTC 2190; A83Q/E154D/E84A/G92D/I171T/L81Q/N87D/S89A/T153K)” gave a Km [1] of 40 mM and a Km [2] of 40 mM.

For “Enterobacter aerogenes IFO12010 acid phosphatase (EA-AP) mutant encoded by pENP410, L61Q/A63Q/E64A/N67D/S69A/A70V/G72D/T133K/E134D/T149A/I151S (parent SEQ ID NO: 10) (Klebsiella aerogenes KCTC 2190; A83Q/A90V/E154D/E84A/G92D/I171S/L81Q/N87D/S89A/T153K/T169A)”, the Km [3] was 4.9 mM and the Km [4] was 18 mM.

For `OC[C@H]1O[C@@H](n2cnc3c(O)ncnc32)[C@H](O)[C@@H]1O` [inosine], the Km [5] was > 100 mM.

For “Enterobacter aerogenes IFO12010 acid phosphatase (EA-AP) mutant encoded by pENP520, L61Q/A63Q/E64A/N67D/S69A/A70K/G72D/T133K/E134D/T149G/I151S (parent SEQ ID NO: 10) (Klebsiella aerogenes KCTC 2190; A83Q/A90K/E154D/E84A/G92D/I171S/L81Q/N87D/S89A/T153K/T169G)”, the Km [6] was 4.4 mM and the Km [7] was 46 mM.

In the case of “Enterobacter aerogenes IFO12010 acid phosphatase (EA-AP) mutant encoded by pENP320, L61Q/A63Q/E64A/N67D/S69A/A70V/G72D/E102L/T133K/E134D/T149S/I151S (parent SEQ ID NO: 10) (Klebsiella aerogenes KCTC 2190; A83Q/A90V/E122L/E154D/E84A/G92D/I171S/L81Q/N87D/S89A/T153K/T169S)”, the Km [8] is reported as 4.6 mM and the Km [9] is reported as 19 mM.

With “Enterobacter aerogenes IFO12010 acid phosphatase (EA-AP) mutant encoded by pENP510, L61Q/A63Q/E64A/N67D/S69A/A70E/G72D/T133K/E134D/T149G/I151S (parent SEQ ID NO: 10) (Klebsiella aerogenes KCTC 2190; A83Q/A90E/E154D/E84A/G92D/I171S/L81Q/N87D/S89A/T153K/T169G)” the Km [10] was 4.0 mM and the Km [11] was 17 mM.

“Enterobacter aerogenes IFO12010 acid phosphatase (EA-AP) mutant encoded by pENP340, L61Q/A63Q/E64A/N67D/S69A/A70V/G72D/E102Q/T133K/E134D/T149S/I151S as printed in Table 13 (parent SEQ ID NO: 10) (Klebsiella aerogenes KCTC 2190; A83Q/A90V/E122Q/E154D/E84A/G92D/I171S/L81Q/N87D/S89A/T153K/T169S)” showed a Km [12] of 5.1 mM and a Km [13] of 19 mM.
